Laboratory results published in article PMC12905490, “Identification and functional characterization of two CXCL17 paralogs from zebrafish” (Biochemical Journal, 2026).

Legend:
[1] = molecular target: sLgBiT-Dr-GPR25 (zebrafish (Danio rerio)); assay: split reporter (BiFC, NanoBiT); NanoBiT-based competition binding: constant 6 × His-SmBiT-Dr-CXCL17-like tracer and varied competitors on living HEK293T cells expressing sLgBiT-Dr-GPR25; serum-free DMEM, 0.1% BSA, 0.01% Tween-20, room temperature ~1 h
sLgBiT-Dr-GPR25 [2] = molecular target: T1, sLgBiT-Dr-GPR25 (zebrafish (Danio rerio), UniProt A0AC58GT18 1-377); assay: split reporter (BiFC, NanoBiT); NanoBiT-based homogeneous saturation binding as before, but sLgBiT-Dr-GPR25 coexpressed with human TPST1 and TPST2 in HEK293T cells; serum-free DMEM, 0.1% BSA, 0.01% Tween-20, room temperature ~1 h; details: one partner purified
T1 construct: G protein-coupled receptor 25 (GPR25), zebrafish (Danio rerio); In one experiment it was coexpressed with human TPST1 and TPST2; sulfation of the N-terminal tyrosines is only called potential; The chemotaxis assays used untagged Dr-GPR25 (PB-TRE/Dr-GPR25); also called N-terminally secretory LgBiT-fused Dr-GPR25; zebrafish GPR25; source: HEK293T, transfected (PB-TRE/sLgBiT-Dr-GPR25), Dox-induced, …
T1 sequence (looked up): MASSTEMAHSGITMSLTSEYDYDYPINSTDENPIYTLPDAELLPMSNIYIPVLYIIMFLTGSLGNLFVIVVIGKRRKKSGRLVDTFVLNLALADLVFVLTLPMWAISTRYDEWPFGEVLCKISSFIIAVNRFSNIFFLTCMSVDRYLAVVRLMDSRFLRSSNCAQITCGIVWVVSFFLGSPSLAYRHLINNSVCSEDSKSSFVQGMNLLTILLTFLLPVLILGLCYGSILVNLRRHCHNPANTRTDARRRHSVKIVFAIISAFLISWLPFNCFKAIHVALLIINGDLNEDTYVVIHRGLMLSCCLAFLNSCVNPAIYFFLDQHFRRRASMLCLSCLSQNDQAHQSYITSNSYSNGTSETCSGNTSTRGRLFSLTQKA

sLgBiT-Dr-GPR25 [3] = molecular target: T1, sLgBiT-Dr-GPR25; assay: split reporter (BiFC, NanoBiT); NanoBiT-based homogeneous saturation binding: varied 6 × His-SmBiT-Dr-CXCL17-like on living HEK293T cells overexpressing sLgBiT-Dr-GPR25, without coexpression of TPST1 and TPST2; serum-free DMEM, 0.1% BSA, 0.01% Tween-20, room temperature ~1 h; non-specific binding with 1.0 μM unlabeled 6 × His-Dr-CXCL17-like; details: one partner purified
sLgBiT-Dr-GPR25 [4] = molecular target: T1, sLgBiT-Dr-GPR25; assay: split reporter (BiFC, NanoBiT); NanoBiT-based competition binding: constant 6 × His-SmBiT-Dr-CXCL17-like tracer and varied competitors on living HEK293T cells expressing sLgBiT-Dr-GPR25; serum-free DMEM, 0.1% BSA, 0.01% Tween-20, room temperature ~1 h; details: one partner purified

Molecule: 6 × His-Dr-CXCL17 (ligand)
- IC50 [1]: 380 nM

B1: 6 × His-SmBiT-Dr-CXCL17-like (ligand, zebrafish (Danio rerio), UniProt A0AB13AB19 26-95, looked up)
chain: QRRSMKQSAVCGCKLYPDKGLKCTKRPNPKSRDEYYEILKCICRDTQIFSKSSRKEYLKRCNKFYPSLPL
notes: Dr-CXCL17-like, zebrafish (Danio rerio, Tübingen strain), mature peptide of 70 amino acids (residues 26-95 of the 95-residue precursor; predicted signal peptide of 25 residues left out); also called tracer; SmBiT-tagged tracer; not shown: His6, N-terminal, kept; SmBiT, N-terminal, kept
- Kd (sLgBiT-Dr-GPR25 [2]): 7.1 ± 0.9 nM
- Kd (sLgBiT-Dr-GPR25 [3]): 7.5 nM

B2: 6 × His-Dr-CXCL17-like (ligand, zebrafish (Danio rerio), UniProt A0AB13AB19 26-95, looked up)
chain: QRRSMKQSAVCGCKLYPDKGLKCTKRPNPKSRDEYYEILKCICRDTQIFSKSSRKEYLKRCNKFYPSLPL
notes: Dr-CXCL17-like, zebrafish (Danio rerio, Tübingen strain), mature peptide of 70 amino acids (residues 26-95 of the 95-residue precursor; predicted signal peptide of 25 residues left out); also called zebrafish CXCL17-like; A0AB13AB19; not shown: His6, N-terminal, kept
- IC50 (sLgBiT-Dr-GPR25 [4]): ~13 nM

B3: 6 × His-Hs-CXCL17 (ligand, human, UniProt Q6UXB2 22-119, looked up)
chain: SSLNPGVARGHRDRGQASRRWLQEGGQECECKDWFLRAPRRKFMTVSGLPKKQCPCDHFKGNVKKTRHQRHHRKPNKHSRACQQFLKQCQLRSFALPL
notes: C-X-C motif chemokine ligand 17 (CXCL17), human; likely the mature peptide with an N-terminal 6 × His tag, as for the zebrafish proteins (surmised); also called Recombinant human CXCL17; source: recombinant
- IC50 (sLgBiT-Dr-GPR25 [4]): ~230 nM
